Reference: a protein production outcome set (Wang et al. 2014)

Test: label from the status in PepcDB records
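Also: failed if final PepcDB status was selected cloned or expressed and not failed if soluble or beyond.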

| Sequence | protein production |
| --- | --- |
| STRPVGGTEYSWCRAIDGGTGIAVIALLLSRTPKLQNLQNTLDKLQIYHPTLRSNIRFDASANSFSFVVTSAADSHVEIHPFDSVSTAQIIRDSDDPCADPHRIILEHEMNKNTWINPHRWIKSESRVFIVSLYDLTDDGEQRILTFRLNTAAVDRTAAVTLLREFMKETAADGFGNGPVVAATETAVGLGKAIEELIPSGKGDKPFWARGIDVLGYSLNAFRFSNLNFVDAENSNRRSQLVRLKLDRDQTLKLVAGCKARGLKLWAALASSALIAAYSSKNLPPYQGEKYAVVTLSDCRSILEPPLTSNDFGFYHAGILHTHDLTGEEKLWDLAKRCYDSFTSSKNSNKQFTDMSDLNFLMCKAIENPNLTPSSSLRTAFISIFEDPVIDESPEPELASLGVQDYIGCASIHGVGPSVAVFDALRDGKLDCAFVYPSPLHSREQMDGLIQHMKTILLEGSASSF | not failed |
| STSPTATKYDVFLSFRGVDTRRNFISFLYKEFVRRKIRTFKDDKELENGRRISPELKRAIEESKFAVVVVSVNYAASPWCLDELVKIMDFENKGSITVMPIFYGVDPCHLRRQIGDVAEQFKKHEAREEDHEKVASWRRALTSLASISGDCSSKCEDEAKLVDEIADKISKNLMTVTTISNGKNLVGIDTHMKALNKKLDLNSNKSLRVVGIWARGYNGRSALAKYVYQDICHHFDSHCFLGSVKRISQGRHLSHLHEEFLIRIQGSKHNLKDQKVLLVADDVYKLEQLDALAEDFNGFGPGSVVIITTQDKHLFVSAGIKLVYEVELLKFQKVCELFRQFAFKKRDISAAVKLVYYRATNWLGCLSGRSG | failed |
| STVKRKPVFVKVEQLKPGTTGHTLTVKVIEANIVVPVTRKTRPASSLSRPSQPSRIVECLIGDETGCILFTARNDQVDLMKPGATVILRNSRIDMFKGTMRLGVDKWGRIEATGAASFTVKEDNNLSLVEYE | not failed |
| SVDKNRTLHELSSKNFSRTPNGLIFTNDLKTVYSIFLICLDLKEKKHSSDTKSFLLTAFTKHFHFTFTYQEAIKAMGQLELKVDMNTTCINVSYNIKPSLARHLLTLFMSSKLLHTPQDRTRGEPKEKVLFQPTPKGVAVLQKYVRDIGLKTMPDILLSSFNSMKLFTFERSSVTDSIIHSDYLIHILFIKMMGAKPNVWSPTNADDPLPCLSSLLEYTNNDDTFTFEKSKPEQGWQAQIGNIDINDLERVSPLAHRFFTNPDSESHTQYYVSNAGIRLFENKTFGTSKKIVIKYTFTTKAIWQWIMDCTDIMHVKEAVSLAALFLKTGLIVPVLLQPSRTDKKKFQISRSSFFTLSKRGWDLVSWTGCKSNNIRAPNGSTIDLDFTLRGHMTVRDEKKTLDDSEGFSQDMLISSSNLNKLDYVLTDPGMRYLFRRHLEKELCVENLDVFIEIKRFLKKMTILKKLIDSKHCDKKSNTSTSKNNIVKTIDSALMKQANECLEMAYHIYSSYIMIGSPYQLNIHHNLRQNISDIMLHPHSPLSEHFPTNLYDPSPASAESAASSISSTEADTLGEPPEVSLKPSKNLSNENCSFKKQGFKHQLKEYKPAPLTLAETHSPNASVENSHTIVRYGMDNTQNDTKSVESFPATLKVLRKLYPLFEIVSNEMYRLMNNDSFQKFTQSDVYKDASALIEIQEKC | failed |
| SVMAEGTAVLRRNRPGTKAQDFYNWPDESFDEMDSTLAVQQYIQQNIRADCSNIDKILEPPEGQDEGVWKYEHLRQFCLELNGLAVKLQSECHPDTCTQMTATEQWIFLCAAHKTPKECPAIDYTRHTLDGAACLLNSNKYFPSRVSIKESSVAKLGSVCRRIYRIFSHAYFHHRQIFDEYENETFLCHRFTKFVMKYNLMSKDNLIVPILEEEVQNSVSGESEA | failed |
| SVTIDHTTENAAPAQAPVSDRAWALFRALDGKGLVPDGYVEGWKKTFEEDFSPRRGAELVARAWTPRRGAELVARAWTDPEFRQLLLTDGTAAVAQYGYLGPQGEYIVAVEDTPTLKNVIVCSLCSCTAWPILGLPPTWYKSFEYRARVVREPRKVLSEMGTEIASDIEIRVYDTTAETRYMVLPQRPAGTEGWSQEQLQEIVTKDCLIGVAIPQVPTV | not failed |
| SYETSQHNLDAVEAVLSRLQKQTGEMAAYMVPVGYRALCVSQRESMQALRCSFVQGQSQPLLRGASSKVMLAYMPAARCEKILRYFGEDPTLDKWQSEFEKIRRHGYAVSTSEIDPGVSGISAPVMKGSKLIGAISVMAPAHRVESNKQRIILHVLQAARALPPER | not failed |
| TARKCLLEKVEVITGEEAESNVLQMQCKLFVFDKTSQSWVERGRGLLRLNDMASTDDGTLQSRLVMRTQGSLRLILNTKLWAQMQIDKASEKSIHITAMDTEDQGVKVFLISASSKDTGQLYAALHHRILALRSRVE | not failed |
| TATNHQGLPAVDSEILEMPPEKADGVVEGIDVNGPKAQLMLRYPDGKREQITLPEQAKLLALVKHVQSKGYPNERFELLTNFPRRKLSHLDYDITLQEAGLCPQETVFVQE | not failed |
| TDAFVFEGFLPTRGKRRLEKLANLKGEQRVVIFYEAPGRLQAALADMREVLGDRHVVVARELTKIHEEFVRGRVSFVAEHFAAVDVKGEVVILVAPAPAP | failed |
| TDINSLRTRLRSGEHAFADTLAFIADGYDYQPQPFRNGDVDNAAGQNEGSCKTLGLALLEGLSDEEALLAFGEHYRSVQATPEGSDHGNIRALIKHGLAGVTFEGEPLKRK | not failed |
| TDPDADRLGVEIRQPDGSYKNLSGNQIGAIIAKYILEAHKTAGTLPENAALAKSIVSTELVTKIAESYGATMFNVLTGFKFIAEKIQEFEEKHNHTYMFGFEESFGYLIKPFVRDKDAIQAVLLVAEIAAYYRSRGLTLADGIDEIYKEYGYFAE | failed |
| TDQAITFDDVLLVPSYNHHESRRVVETTSTDRLGKLTLNLPVISANMDTITESNMANFMHSKGAMGALHRFMTIEENIQEFKKCKGPVFVSVGCTENELQRAEALRDAGADFFCVDVAHAHAKYVGKTLKSLRQLLGSRCIMAGNVATYAGADYLASCGADIIKAGIGGGSVCSTRIKTGFGVPMLTCIQDCSRADRSIVADGGIKTSGDIVKALAFGADFVMIGGMLAGSAPTPGEVFQKDDGSKVKRYRGMASREAQEAFLGQMHEWKTAEGVATEVPFKENPDGIIADIIGGLRSGLTYAGADSISELQRKLNYVIVTQAGRIESLPHKLLEG | not failed |
| TEDSLMPEEEFLRRNKGPVSIKVQVPNMQDKTEWKLNGQGLVFTLPLTDQVSVIKVKIHEATGMPAGKQKLQYEGIFIKDSNSLAYYNMASGAVIHLALKER | not failed |
| TEDTVIKVSVLRGPSVIAFADWLENPPIIDNKKVQVKVVDSPDLAQALLIKQETDIAVLPMINAANLYNKGIKIKLAGCPIWGTLYLVEKTPLKEPALYVFGNGTTPDILTRYYLGRQRLDYPLNYAFNTAGEITQGILAGKVNRAVLGEPFLSIALRKDSSLRITADLNHLTDNDTLGFAQTAVVYTPTMEKYRIAFEDALRASCQKAVRYPKETIHSLEEHGIFAQGALTPKSIERCKIYYLSAIEAKDAVMGFLRLIEQYEPKAVGGRLPDAGFIPEKQ | not failed |
| TFDNLNSMNGKGSSTDGINYVFDSLMSSSLDEPGVMYPLLAKTATFDPEQTHFVIFELNPKARFSDGTPVTAQDVKFSFDTYQSKANPGLQMYISDLAKTEVLSKYRVKFSFKSQNNAEMPLILASLPIYSQKDWKNRDFTRVTLQPILGSGPYLIERIDPS | failed |

| Sequence | protein production |
| --- | --- |
| TFSYLAETDYPVFTLGGSTADAARRLAASGCACAPVLDGERYLGMVHLSRLLEGRKGWPTVKEKLGEELLETVRSYRPGEQLFDNLISVAAAKCSVVPLADEDGRYEGVVSRKRILGFLAERI | failed |
| TGALMASSPQDIKFQDLVVFILEKKMGTTRRALLMELARRKGFRVENELSDSVTHIVAENNSGSDVLEWLQAQKVQVSSQPELLDVSWLIECIGAGKPVEMTGKHQL | not failed |
| TGELEVVQQAVKEMNDPSQPNEEGITALHNAICGANYSIVDFLITAGANVNSPDSHGWTPLHCAASCNDTVICMALVQHGAAIFATTLSDGATAFEKCDPYREGYADCATYLADVEQSMGLMNSGAVYALWDYSAEFGDELSFREGESVTVLRRDGPEETDWWWAALHGQEGYVPRNYFGLFPRVKPQRSKV | failed |
| TGNVCIEEIDVDGKFIRLKNTSEQDQPMGGWEMIRKIGDTSVSYKYTSRYVLKAGQTVTIWAANAGVTASPPTDLIWKNQNSWGTGEDVKVILKNSQGEEVAQRSTVFKTTIP | failed |
| THGVVIIDVTKNENKVIYVNRAFERITGYGEQHALGKGLLTLLGSNLEEVNHKRIELAIRESKEETIEMESIKRNGEFYWCEISVAPVKDSF | failed |
| TIEARTAQSTPSAPPQKVMCVSMGSTTVRVSWVPPPADSRNGVITQYSVAYEAVDGEDRGRHVVDGISREHSSWDLVGLEKWTEYRVWVRAHTDVGPGPESSPVLVRTDEDVPSGPPRKVE | not failed |
| TIPEGLRAVVFDFDGTILDTETREFHHWQELYREHGRELALSDWQRGVGTWDAFDPWAGLPEQVQADRENVRARLHDTIVSDIAGQDLRPGVRAVLEGVKAAGLRLALATSSDREWVTRWMRQHNLLDLFEAVATRDDVRRVKPDPELYLLAAARLGLRPEECLAVEDSFNGATAAVAAGMRLVVVPNDVTRTQPFPAEWRRLEDGYAGGLAGLL | failed |
| TISSGVPPELPGPPTNLGISNIGPRSVTLQFRPGYDGKTSISRWLVEAQVGVVGEGEEWLLIHQLSNEPDARSMEVPDLNPFTCYSFRMRQVNIVGTSPPSQPSRKIQTLQ | not failed |
| TKGEKKQESFLLEYVSANPTGPLHIGHARGAVFGDTLTRLARHLGYKFNTEYYVNDAGNQIYLLGLSILLSVKESILHENVEYPEQYYKGEYIVDLAKEAFEKFGKEFFSEENIPSLADWAKDKMLVLIKQNLEQAKIKIDSYVSERSYYDALNATLESLKEHKGIYEQEGKIWLASSQKGDEKDRVIIREDGRGTYLAADIVYHKDKMSRGYGKCINIWGADHHGYIPRMKAAMEFLGFDSNNLEIILAQMVSLLKDGEPYKMSKRAGNFILMSDVVDEIGSDALRYIFLSKKCDTHLEFDISDLQKEDSSNPVYYINYAHARIHQVFAKAGKKID | failed |
| TLIYGHRGAKGEAPENTLASFQRCLEHGVNRCELDLHLSRDGELMVIHDPTLKRTTGRRGKVAEHDAATLATYDARKGGPGWVRPTPIPRLEELFEKCPFEHWQLEVKSASRERAARTVTRIRELTERFGNRDKVTVTSGSRTVLKALNELTPELSRGLVAEYAWLDPLKVAQHYGCALLALNWTLCTPERLLKAQRQGLHVSVWTVNEPALMRRLADFGVDSLITDFPGLASATLGNR | failed |
| TMLRVRSRDGLERVSVDGPHITVSQLKTLIQDQLQIPIHNQTLSTNRNLLLAKSPSDFLAFTDMADPNLRISSLNLAHGSMVYLAYEGERTIRG | not failed |
| TNDEETIQQQILALSADKRNFLRDPPAGVQFNFDFDQMYPVALVMLQEDELLSKMRFALVPKLVKEEVFWRNYFYRVSLIKQSAQLT | not failed |
| TNNGKQFIHNDTMEGGKLVCREIYAMNDAASGILNPVKMYKYSYDTDQQKTVKSTYAWNIFKNTWETESRTVISRYETETSVEYSVWNKEKGSFDLSKKYIYITDNNNQLIAQYAYKMNSRTNQWILEKDALTPIYENIYATTR | not failed |
| TQIQNRTRRAKRALAARGLTEAVTWSFISKPFAEAFGGGQPELALANPIASDLSDMRPSLLPGLIAAAQANADRGSPDLALFEVGQVFKGDRPQDQFMAASGVRRGVASSAGLGRHWSGSAQATALDAKADAFAVLAAAGAPMAGLQIATNKLPAWLHPGRSGAIQIGPQNVLGYFGELHPRVLEQLGADGPLVAFEVILEKIP | not failed |
| TQVADNEYLVQGRMLIDEFNEVFETDLHMSDVDTMAGYLITALGTIPDEGEKPSFEVGNIKLTAEEMEGTRLLVLRVHFYDEETVDEEPEENRRFFRKEMEDDEPRR | not failed |
